This is an account of results in patent publication US6140364A, “Arachidonic acid metabolite, 16-HETE” (The University of Vermont and State Agricultural College, priority 1996, dated 2000).

In series [1] the test system is rabbit model of thromboembolic stroke (brain infarct). The experiment in a line: Brain infarct size in rabbit model of thromboembolic stroke. It counts as in vivo. Conditions: 16-HETE 1 μg/kg per minute for 1 hour from 1 h after embolization, tPA 6.3 mg/kg between 3 and 5 hours.
Method: New Zealand rabbits of either sex, weighing 3-4 kilograms were used for the study. Prior to the start of the experiment, the rabbits were divided into three groups, those that were administered either 16-HETE at a rate of 1 μg/kg per minute for one hour, tPA (Genentech, Inc., San Francisco, Calif.) at a concentration of 6.3 mg/kg. 16-HETE plus tPA, or vehicle.
On the day of treatment the animals were fasted for 12 hours with free access to water and then anesthetized with an intramuscular solution of ketamine (50 mg/kg), acepromazine (20 mg) and xylazine (5 mg/kg). This solution was subsequently used to maintain a surgical depth of anesthesia as determined by responses to various physiologic and autonomic stimuli, including mean arterial pressure and response to paw pinch.
The animals were prepared for surgery by introducing femoral venous and arterial catheters (PE50 and 90, respectively; Clay Adams, Parsippany, N.J.). […]
Following determination of all base line values the right common carotid bifurcation is exposed, the internal carotid artery (ICA) isolated, a micro-arteriotomy performed and the 15-mm clot embolized intracranially via the ICA. […] Post embolization rCBF is then determined and the experiment continued if rCBF is reduced to 15 cc /100 gm/minute in at least one of the PT-IR electrodes within the embolized hemisphere. […]
The conditions of series [2]: compared with native tPA; cited from earlier work.
Series [3] deals with fibrin. Conditions: compared with native tPA or other variants; cited from earlier work.

B1: tPA: tissue plasminogen activator (Genentech, Inc.), thrombolytic agent (protein, UniProt P00750 36-562, looked up)
Tissue-type plasminogen …: SYQVICRDEKTQMIYQQHQSWLRPVLRSNRVEYCWCNSGRAQCHSVPVKSCSEPRCFNGGTCQQALYFSDFVCQCPEGFAGKCCEIDTRATCYEDQGISYRGTWSTAESGAECTNWNSSALAQKPYSGRRPDAIRLGLGNHNYCRNPDRDSKPWCYVFKAGKYSSEFCSTPACSEGNSDCYFGNGSAYRGTHSLTESGASCLPWNSMILIGKVYTAQNPSAQALGLGKHNYCRNPDGDAKPWCHVLKNRRLTWEYCDVPSCSTCGLRQYSQPQFRIKGGLFADIASHPWQAAIFAKHRRSPGERFLCGGILISSCWILSAAHCFQERFPPHHLTVILGRTYRVVPGEEEQKFEVEKYIVHKEFDDDTYDNDIALLQLKSDSSRCAQESSVVRTVCLPPADLQLPDWTECELSGYGKHEALSPFYSERLKEAHVRLYPSSRCTSQHLLNRTVTDNMLCAGDTRSGGPQANLHDACQGDSGGPLVCLNDGRMTLVGIISWGLGCGQKDVPGVYTKVTNYLDWIRDNMRP
Regarding B1, the brain infarct size entry in series [1] was “significantly larger than the 16-HETE group”.

B2: C84S tPA: tPA variant in which cysteine at position 84 of the growth factor domain of native tPA is replaced by serine (protein, UniProt P00750 36-562, looked up, variant C84S)
Tissue-type plasminogen …: SYQVICRDEKTQMIYQQHQSWLRPVLRSNRVEYCWCNSGRAQCHSVPVKSCSEPRCFNGGTCQQALYFSDFVCQCPEGFAGKCSEIDTRATCYEDQGISYRGTWSTAESGAECTNWNSSALAQKPYSGRRPDAIRLGLGNHNYCRNPDRDSKPWCYVFKAGKYSSEFCSTPACSEGNSDCYFGNGSAYRGTHSLTESGASCLPWNSMILIGKVYTAQNPSAQALGLGKHNYCRNPDGDAKPWCHVLKNRRLTWEYCDVPSCSTCGLRQYSQPQFRIKGGLFADIASHPWQAAIFAKHRRSPGERFLCGGILISSCWILSAAHCFQERFPPHHLTVILGRTYRVVPGEEEQKFEVEKYIVHKEFDDDTYDNDIALLQLKSDSSRCAQESSVVRTVCLPPADLQLPDWTECELSGYGKHEALSPFYSERLKEAHVRLYPSSRCTSQHLLNRTVTDNMLCAGDTRSGGPQANLHDACQGDSGGPLVCLNDGRMTLVGIISWGLGCGQKDVPGVYTKVTNYLDWIRDNMRP
For B2, in series [2], the “in vivo / circulatory half life” value is “longer in vivo half life than native tPA”. In addition, in series [3], the potency / effectiveness result was “retains the functional activity of native tPA”.

B3: TNK tPA: triple mutant variant of wild type tPA: T103N, N117Q, KHRR (296-299) AAAA tPA (protein, UniProt P00750 36-562, looked up, variant T103N N117Q K296A H297A R298A R299A)
Tissue-type plasminogen …: SYQVICRDEKTQMIYQQHQSWLRPVLRSNRVEYCWCNSGRAQCHSVPVKSCSEPRCFNGGTCQQALYFSDFVCQCPEGFAGKCCEIDTRATCYEDQGISYRGNWSTAESGAECTNWQSSALAQKPYSGRRPDAIRLGLGNHNYCRNPDRDSKPWCYVFKAGKYSSEFCSTPACSEGNSDCYFGNGSAYRGTHSLTESGASCLPWNSMILIGKVYTAQNPSAQALGLGKHNYCRNPDGDAKPWCHVLKNRRLTWEYCDVPSCSTCGLRQYSQPQFRIKGGLFADIASHPWQAAIFAAAAASPGERFLCGGILISSCWILSAAHCFQERFPPHHLTVILGRTYRVVPGEEEQKFEVEKYIVHKEFDDDTYDNDIALLQLKSDSSRCAQESSVVRTVCLPPADLQLPDWTECELSGYGKHEALSPFYSERLKEAHVRLYPSSRCTSQHLLNRTVTDNMLCAGDTRSGGPQANLHDACQGDSGGPLVCLNDGRMTLVGIISWGLGCGQKDVPGVYTKVTNYLDWIRDNMRP
In the case of B3, in series [3], the potency / effectiveness result is “most effective of the triple mutant variants”.
